Consider two molecules from article doi:10.1101/452920.

Test in all cases: fluorescence anisotropy
The target in one series is T1, MRPP3 (Δ95) (human, UniProt O15091 96-583, del1-95).
T1 sequence: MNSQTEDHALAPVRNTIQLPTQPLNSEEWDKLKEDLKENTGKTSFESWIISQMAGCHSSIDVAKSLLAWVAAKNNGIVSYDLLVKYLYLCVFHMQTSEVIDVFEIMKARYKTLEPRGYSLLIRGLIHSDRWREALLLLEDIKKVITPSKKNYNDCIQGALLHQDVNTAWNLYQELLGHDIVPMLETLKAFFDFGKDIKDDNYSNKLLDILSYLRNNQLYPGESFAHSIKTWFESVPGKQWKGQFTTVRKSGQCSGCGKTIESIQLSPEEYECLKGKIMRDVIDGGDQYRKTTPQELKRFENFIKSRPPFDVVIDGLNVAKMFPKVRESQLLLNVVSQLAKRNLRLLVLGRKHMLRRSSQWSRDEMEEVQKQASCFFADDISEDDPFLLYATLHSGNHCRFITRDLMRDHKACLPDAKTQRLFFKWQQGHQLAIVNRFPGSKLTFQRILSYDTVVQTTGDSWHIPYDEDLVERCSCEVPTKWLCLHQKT

In series [1] the target is T2, MRPP1 (Δ39);MRPP2 (human;human, UniProt Q7L0Y3;Q99714 40-403;1-261, del1-39|).
T2 sequence 1: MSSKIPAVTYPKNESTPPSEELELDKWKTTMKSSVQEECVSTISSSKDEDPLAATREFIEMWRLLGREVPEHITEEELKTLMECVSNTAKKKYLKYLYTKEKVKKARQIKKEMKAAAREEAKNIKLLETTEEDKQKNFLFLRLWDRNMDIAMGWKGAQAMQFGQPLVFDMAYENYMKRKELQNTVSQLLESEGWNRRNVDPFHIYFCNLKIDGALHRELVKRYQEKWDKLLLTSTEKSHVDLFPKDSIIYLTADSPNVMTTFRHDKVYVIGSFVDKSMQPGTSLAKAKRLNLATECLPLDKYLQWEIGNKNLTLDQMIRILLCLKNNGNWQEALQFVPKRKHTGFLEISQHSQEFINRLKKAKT
T2 sequence 2: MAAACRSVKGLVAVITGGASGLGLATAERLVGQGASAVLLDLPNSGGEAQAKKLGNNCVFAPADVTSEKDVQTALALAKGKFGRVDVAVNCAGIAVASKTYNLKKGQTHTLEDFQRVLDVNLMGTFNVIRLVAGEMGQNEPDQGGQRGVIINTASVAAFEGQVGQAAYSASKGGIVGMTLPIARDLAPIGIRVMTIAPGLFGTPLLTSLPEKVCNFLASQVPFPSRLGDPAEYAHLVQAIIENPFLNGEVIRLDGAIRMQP

Series [2] deals with T3, MRPP1 (Δ39);MRPP2;MRPP3 (Δ95) (human;human;human, UniProt Q7L0Y3;Q99714;O15091 40-403;1-261;96-583, del1-39||del1-95).
T3 sequence 1: T2 sequence 1
T3 sequence 2: T2 sequence 2
T3 sequence 3: T1 sequence

The target of series [3] is T2, MRPP1 (Δ39);MRPP2. This is another data set of the same source.
Series [4] deals with T3, MRPP1 (Δ39);MRPP2;MRPP3 (Δ95). The source holds these as a separate data set.

Substitutions are numbered along the chain they refer to. Like-named read-outs stand apart in the source and are kept apart here.

B1: (mt)pre-tRNAVal7:0 (structured_RNA)
RNA: GACGAACCAGAGUGUAGCUUAACACAAAGCACCCAACUUACACUUAGGAGAUUUCAACUUAACUUGACCGCUCUGA
Regarding B1, binding with MRPP3 (Δ95) was put at a Kd of 21.7 ± 2.6 µM. In addition, the binding result (with MRPP1 (Δ39);MRPP2 [1]; in series [2]) was “binds” each time.

B2: (mt)pre-tRNAVal/C9 (structured_RNA)
RNA: B1 RNA with A16C
For the molecule B2, the binding result (in the series with MRPP1 (Δ39);MRPP2 [3]; in series [4]) was “binds” in each case.
